Results reported in patent US20030022261A1 (SALK INSTITUTE FOR BIOLOGICAL STUDIES, published 2003).

Biological target: T1, papain (immobilised, papain affinity chromatography) (UniProt P00784 134-345)
T1 sequence (looked up): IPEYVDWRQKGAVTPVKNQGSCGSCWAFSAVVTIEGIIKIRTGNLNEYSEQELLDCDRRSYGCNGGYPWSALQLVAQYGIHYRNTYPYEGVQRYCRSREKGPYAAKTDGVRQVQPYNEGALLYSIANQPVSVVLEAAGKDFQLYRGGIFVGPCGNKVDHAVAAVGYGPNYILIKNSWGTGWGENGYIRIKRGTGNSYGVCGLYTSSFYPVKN
Assay: papain affinity chromatography (retention on immobilised papain during purification)

binding result: binds
B1: glycosylated cystatin C (CCg), 21 kDa protein purified from conditioned medium of adult rat hippocampus-derived neural progenitor cells (other, UniProt P14841 21-140, looked up)
chain: GTSRPPPRLLGAPQEADASEEGVQRALDFAVSEYNKGSNDAYHSRAIQVVRARKQLVAGINYYLDVEMGRTTCTKSQTNLTNCPFHDQPHLMRKALCSFQIYSVPWKGTHTLTKSSCKNA
modifications: N-linked carbohydrate moiety of approximately 2.4 kDa (about 15 hexose residues) at the N-glycosylation site (Asn79-X-Thr); carbohydrate moiety of 0.3 kDa at the O-glycosylation site (Ser3)
notes: mature; also called glycosylated form of cystatin C; stem cell glycocystatin C
